Laboratory results reported in the DeepSol protein solubility set.

experiment: soluble on expression in E. coli; label from the status in PepcDB or PDB records

For “MLIRAMQKSDYEAVYKLWCEIKGFGIRSIDDSKENIENFLDRNPNLSVVAVIDEEIVGSILCGHDGRTGGFYHVCVHKDHRKKGIAHEMAKFCLEALKAQKINKIALIAFKNNDLGNEFWKHYGFTLREDANYYDLSLNEYNQTSFNA”, which “soluble on expression in E. coli” value is on record?
Its value is “not soluble”.

With “MAGDPMQKVKSDILTHRGSHFDLGVQTAQWMQHTPLLKNREQEWKKRMPRFDIHIKETYDIFQTYAPQIWEEIRGMQEVLNLPTRQMILNFAHYRFTPLKNSGCTVYLGNDYMVRNYDYHPATYDGRYLLFQPNDGGLAQIGPTSRVTGRMDGMNEAGLAMGYNFMHRKHPGDGFVCYMIGRLVLQYCKDVPEAIKLLKEIPHRSSFSYIVMDKYLNHAIIEVTPRSIDVRYDHTCTNHFKLLTHENRNYTKESTERLDRLIKQTPAQLGKMDAFKLFNNPEFEIYSKLFKSWSGTIHTSMYEPQSLTAHITLGENKAPVEIDFQQWLNGESLNINELTGQIDTELTFATYLEHHHHHH” as the sequence, how does the “soluble on expression in E. coli” value read?
Its value is “not soluble”.

For “MGMTIVEKILAKASGKKEVSPGDIVMANIDVAMVHDITGPLTVNTLKEYGIEKVWNPEKIVILFDHQVPADSIKAAENHILMRKFVKEQGIKYFYDIREGVCHQVLPEKGHVAPGEVVVGADSHTCTHGAFGAFATGIGSTDMAHVFATGKLWFKVPET”, which “soluble on expression in E. coli” value is on record?
The value was “not soluble”.

Which “soluble on expression in E. coli” value does the source give for “MGSDKIHHHHHHMANPLTGYNFAYLDEQTKRMIRRAILKAVAIPGYQVPFGGREMPMPYGWGTGGIQLTASVIGENDVLKVIDQGADDTTNAVSIRQFFKRVTGVATTERTEDATLIQTRHRIPETPLVEDQILIYQVPIPEPLRFIEPRETETRTMHALEEYGVMQVKLYEDIARFGHIATTYAYPVKVNGRYVMDPSPIPKFDNPKMHMMPALQLFGAGREKRIYAVPPYTPVESLDFDDHPFTVQEWDEPCAICGSRHSYLDEVVLDDSGQRMFVCSDTDYCRQQSEGQKK” here?
Its value is “not soluble”.

With “MNDSSLKKALSQNSISSAPRRPQKLGSVQSIVRNESDKNVPSPFEEITLSDDDEEAPAKKPVKCATCARDMTLWMNSRRDIHVKVCKAKQSEKEKETTRKSKTLTETIEKDDQVYEKPSSKTHLFEKPFEKPQELPKSWELSKNNVKFARIAEDDEENRKRKRPRSFAVVELAPKKCQCEVLTTLHSRFIDEFHSKSIKNQKKREEGVTEHAFQMKKMIEKISRYEQLSSDMQKVLDDNSEQLPTHIFITCSDGHRVKCQTMILKHRTSLIRLNPKSENIQVEHTKEVVKAWISFVFTANIEWNDDDKDGVRDLASKYGPVGLDLIVKNDKEEDLEKVDDVEDVVEPEAKIDSVVADPVEIEPTASHSDPIELDKSVNYFTSDDPFFGFGKAVENVEDDAEQIMEDKPHESVHSTPQKPTTNVTMDSFDEWSNQPSTNLPTTSNVITPIRNITSKAVFGSHVKILKTNDITPMPAFDSMEEAELKERMKEIGMRPKGKKAMIQILKKAYITLHPEICSGTPTIRPLVRSASLEKVSEQGGKGGRKTIKTKTLSERMIASPKKVSPKKQGVKNAISDETSKNVSNVSDDLDEDNDGDKTLNISNDEREVGKIWGDDVGDDEEDDDDMSASSTSGKHDLSALKLAFLTWLRSDQNTVLHEHILSLQPVSLEEMLIRLEKADGPLGRIGKGKLVKLLEMLKITYQLPQKTGRARGGYKRRL” as the sequence, how does the “soluble on expression in E. coli” value read?
Its value is “not soluble”.

For “MVTFASGDMLADDLGRFDYVVAMDSLIYYTDADIAAALDRLGARTRHSVVFTVAPRTPFLMAFWTMGKLFPRSDRSPVMIPHPFQPLNEATGGRLVKVGRVSRGFYISECLEFRPLEHHHHHH”, which “soluble on expression in E. coli” value is on record?
Its value is “soluble”.

Which “soluble on expression in E. coli” value does the source give for “MSLETINNSAKKQPGLYISGQYKPSVSVFSNFSVKETNVPTKQLIALKKDINSVAVGSNATTGISNPGNFTIPYTAEFQDNVANFNGAVGYSFPDSLRIEIEGFHEKFDVKNPGGYTQVKDAYRYFALARDLKDGFFEPKAEDTGVYHTVMKNDGLSILSTMVNVCYDFSVDELPVLPYICAGMGINAIEFFDALHVKFAYQGKLGISYQLFTKVNLFLDGYYHQVIGNQFKNLNVNHVYTLKESPKVTSAVATLDIAYFGGEVGIRFTFEGHHHHHH” here?
Its value is “not soluble”.

For “VTNVSWLVTGSMSALSIPGLIFSLRSSHPNLNFTPYLTQSASRIVTMTSMATLSGVTPRNSDWGSEPEATPSHIQIESESDAYLIAPATLDFLARFARYDCSTPFSLALQCTKKPILVAPS”, which “soluble on expression in E. coli” value is on record?
Its value is “not soluble”.

With “MGSDKIHHHHHHMLQTTNKPPLTIRLCQPRGFCAGVDRAIQIVVLALKKYGAPVYVRHEIVHNRYVVEGLQSLGAVFIEELSEIPAEHRRSPVVFSAHGVPKSVPADAQARNLFYLDATCPLVSKVHKQAMRHQRLGRHVLLIGHAGHPEVIGTMGQLPEGAVTLVETEADAARLVPADPKALGFVTQTTLSVEDTAGIIRALRERFPDLQAPAAESICYATTNRQEAVKDTAPGADLYLIVGAPNSSNSRRLVEVAERAGATMSLLVQRAAEIPWNDIGTISTLGLSAGASAPEIIVDEIIDAFRQRFDVTIDLAITATETEDFPVMRVLRDVELTPADMAFVNGAA” as the sequence, how does the “soluble on expression in E. coli” value read?
Its value is “not soluble”.

With “SRPADLLQLVLLLDLPRDLGGMGCSSPPCECHQEEDFRVTCKDIQRIPSLPPSTQTLKLIETHLRTIPSHAFSNLPNISRIYVSIDVTLQQLESHSFYNLSKVTHIEIRNTRNLTYIDPDALKELPLLKFLGIFNTGLKMFPDLTKVYSTDIFFILEITDNPYMTSIPVNAFQGLCNETLTLKLYNNGFTSVQGYAFNGTKLDAVYLNKNKYLTVIDKDAFGGVYSGPSLLLPLGRKSLSFETQKAPRSSMPS” as the sequence, how does the “soluble on expression in E. coli” value read?
Its value is “soluble”.

Which “soluble on expression in E. coli” value does the source give for “MAGWETHKKAQWLCQLRKGMSMLPDTLSEQFVLYLDVLDGGSFSAAARKHPLTPSAVARRMDALERAVGSTLLVRTTHAVRATPAGLAFADRARRIVTELRLARAEAVSLSTAPQGLIRIDAPVPFGRRHLAPAVADFLKANPGLDVQLRLIGSFIDLQGEHLGEVDLVLRAGPLPDSRLVATSLAPMVRVVCASPEYLREHGVPASPGELPEHAGIDWDNLSPPYAWRFQHDGKLQHLRPKRARLATNNAEAMVDAALAGLGIAHLPTWLCSEYLLRGELQALFCDDGLPAAEPTCIYALRLEREASSRTRLLLAFLRERFGFPPPWDQALQQRLGER” here?
The value was “not soluble”.

With “AHHHHHHGSLKLSDFIPLTMLREGETGVVVDIQSGVNARGKLLSMGITPGVRVRMIKSRKPGPVIIGIGSSKIALGWGIASKIIVRRE” as the sequence, how does the “soluble on expression in E. coli” value read?
The value was “not soluble”.

With “MSQIAGYFSSDSGVYPNPVKDVLNIKHEGDFGVRIFDFSGRLVLSMENTRMIGVKVLTAGAYVIKLMTQGSTPAERFIKL” as the sequence, how does the “soluble on expression in E. coli” value read?
Its value is “not soluble”.

With “MFPSSEVEAKRTTLNLELESNTDRLLQEKDDLLPQSVTNSSDEGTPFAQVEGASDDNTAEQDSDKPGASVADADTKPVDPEWKTITVASGDTLSTVFTKAGLSTSAMHDMLTSSKDAKRFTHLKVGQEVKLKLDPKGELQALRVKQSELETIGLDKTDKGYSFKREKAQIDLHTAYAHGRITSSLFVAGRNAGLPYNLVTSLSNIFGYDIDFALDLREGDEFDVIYEQHKVNGKQVATGNILAARFVNRGKTYTAVRYTNKQGNTSYYRADGSSMRKAFIRTPVDFARISSRFSLGRRHPILNKIRAHKGVDYAAPIGTPIKATGDGKILEAGRKGGYGNAVVIQHGQRYRTIYGHMSRFAKGIRAGTSVKQGQIIGYVGMTGLATGPHLHYEFQINGRHVDPLSAKLPMADPLGGADRKRFMAQTQPMIARMDQEKKTLLALNKQR” as the sequence, how does the “soluble on expression in E. coli” value read?
The value was “not soluble”.

For “MLVAAILVGCGRDAPPPAAPVALDKTFLADTAAWREARLKELRAPDGWTSLVGLHWLSLKAHYIGSSADSGIKLAVGPPKMGMVSTENNAVWFVPERGAALTLDGKPLTSRIRFQSDRDPQPTLIHFDDGKGVLSLIHRGDRYALRVKHADASSRTHFAGLDYWPLDASWRINARYVPNAVGKTIPIVDIVGISSEQPNAGAIEFERDGKTFRLETIGEPGRAMFVVFADRTSGHGSYPAGRFLDLDVPDASGHVMVDFNRAYNPPCAFTPFATCPLPPPENRIDLAVSAGEKAYKVPHLEHHHHHH”, which “soluble on expression in E. coli” value is on record?
Its value is “soluble”.

For “ASWSHPQFEKGAMALTEAWLIEKANRKLNAGGMYKITSDKTRNVIKKMAKEGIYLCVAQGYRSTAEQNALYAQGRTKPGAIVTNAKGGQSNHNYGVAVDLCLYTNDGKDVIWESTTSRWKKVVAAMKAEGFKWGGDWKSFKDYPHFELCDAVSGEKIPAATQNTNTNSNRYEGKVIDSA”, which “soluble on expression in E. coli” value is on record?
Its value is “soluble”.

With “MIYKNRLLKTIRYNVKATTISPLAIRDDEDNLKIDQLTGKVYIPGSSVAGAFRNYYENYIDKNSNENFNELFGGQKTGMSQIVFYDGYLVNDYVKEMISSRPGIKMDLKRMTVEVSDDAKKSGKKFKRRFLNEGLTFEFVFELNNYEDDAGKFEEKQRKFEELLKAFSIGDISLGSNKMIGYGRFRVDSISKSVFDFTNINDLLKYMLMETDSTEITQDILGREQETSKVRFKIKGKTVTPLLVKDETVRLSNESDGINIKDSRGNYIIPGSSIKGVIRSRAERLHRTFPCIGEEILTNIFGIESKKDDDGHISRLSCFDAVVKNPNKGIYNKIKIDYFTGGVMQGALMNDEVVMGDVEIECTFNTSGLNDYKREIGLLLLVLRDLCKEDLSIGSGYAVGRGYIKAETLELYDGEKLVLDFKSPNREVLKRFDSYISSLMNVG” as the sequence, how does the “soluble on expression in E. coli” value read?
The value was “soluble”.

Which “soluble on expression in E. coli” value does the source give for “MSLSFTPLHTTSEAFIEKALPWLEDRYFHIAYLNPNGYTAYPQGAFRHYLAFGSEAAIHVSDATRVFETWNEIKKGYTNEWIFVFASYDGKNSVEQLHTSKEAGIAFAAATFFIPEHVWEIQPDGILIHKGSGSSLVTEIQHAEPSTPVQQSDIFVKQVVSKESYFNAFDELQQIIAQGDAYEINYCIPFTAKGNISPAATYQRLNKKTPMPFSVYYKFNTEYILSASPERFIKKTGDTIISQPIKGTSKRGKSKAEDEMLKQQLGTSEKEQSENTMIVDLVRNDLSRTAVAGSVCVPELSGLYTFPNVHQLISTVQSTIDPACSSIDVIQQAFPMGSMTGAPKVNVMKFIDRIESMARGPFSGTVGYMDPHDNFDFNVLIRSIFYNSATQELFMEAGSAITSYAKAETEYEECLLKITPMIHILNNQEGHHHHHH” here?
The value was “soluble”.

Which “soluble on expression in E. coli” value does the source give for “MAHHHHHHMQKHNIKLNQNQDISQLFHDEVPLFDNSITSKDKEVIETLSEIYSIVITLDHVEKAYLKDSIDDTQYTNTVDKLLKQFKVYLNSQNKEEINKHFQSIEAFCDTYNITASNAITRLERGIPITAEHAISTTTSAPSGDNKQSSSSDKK” here?
Its value is “soluble”.

For “MGSDKIHHHHHHMEKAERLTGTPDYAVLPGRILDKTLAGRGLQKAEFAERCGHSAKMISEIIAGKAPIMPETALEFERVLGMPASYWLTLESLYRLRLAEQRDRQRLSDQRDWAKRFPIAAMVRLGWIDKPSDRVDEVAKLLAFFGVASVEAWQAMTASAAEQIAYRRSPSFQSAPESVSAWLRRGEMVAGARPCGPFDEAGFRRVLKSVRELTREAPEVFQPSLIERCACVGVAVVFTPELPKTCLSGATRWLSKDKALIQLSLRHKTDDHLWFTFFHEAGHVLLHPKKLILEEKLKKGEAPTPESAQREREANVFAATTLIPRSAWMAFTAAGDFSAPRIRAFAKEHSLSPGIIVGQLQHDSHLSYATTLNSLKTTFRWPAESAVSHPSV”, which “soluble on expression in E. coli” value is on record?
The value was “not soluble”.

For “TPNKEDYLKCLYELGTRHNKITNKEIAQLMQVSPPAVTEMMKKLLAEELLIKDKKAGYLLTDLGLKLVSDLYRKHRLIEVFLVHHLGYTTEEIHEEAEVLEHTVSDHFVERLDQLLDYPKACPHGGTIPAKGELLVEKHKLTLEEAKEKGDYILARVHDNFDLLTYLERNGLQVGKTIRFLGYDDFSHLYSLEVDGQEIQLAQPIAQQIYVEKI”, which “soluble on expression in E. coli” value is on record?
Its value is “soluble”.

With “MGSDKIHHHHHHMPFAKEKGQPAIYYETIGKGTPIIFIPPPGVGHLTFRYQVPLMNQCKLITFDVRGDCQSERSTEPMTMTQLAYDVKRVLDANCVRKAIVCGYSNGAAIAQEFALTYPERTAGVILIGGYFAVKNFLLEKEYKLGIWAARNELMPLLASGLAKNHFTDKQAANELYAEIMKTDPQMLADQYTTGLHYSSEDRLHQLRVPLLLIYGANDHYLQPYQTRFRELVHDVEIVYIQGVKHQVPSKAPHECNAVLREWMRRKQFIPS” as the sequence, how does the “soluble on expression in E. coli” value read?
The value was “not soluble”.
